Molecular target: SARS-CoV-2 S1 protein containing a C-terminal His-tag (Acro; S1N-C52H3) (SARS-CoV-2) (UniProt P0DTC2)
Assay: flow cytometry on cells

Substance: recombinant fragment of human surfactant protein D (rfhSP-D) (from UniProt P35247 199-375) (domain or fragment)
- percent reduction of S1 binding to ACE2 on cells at 10 μg/ml rfhSP-D: 35%

Source: publication doi:10.1101/2020.12.18.423418
